Columns and labels:
[1] = biological target: T1, LetA (N-terminal 6xHis2xQH-TEV tagged LetA) (E. coli, UniProt P0AD03 1-427); assay: cryo-EM structure
T1 sequence (looked up): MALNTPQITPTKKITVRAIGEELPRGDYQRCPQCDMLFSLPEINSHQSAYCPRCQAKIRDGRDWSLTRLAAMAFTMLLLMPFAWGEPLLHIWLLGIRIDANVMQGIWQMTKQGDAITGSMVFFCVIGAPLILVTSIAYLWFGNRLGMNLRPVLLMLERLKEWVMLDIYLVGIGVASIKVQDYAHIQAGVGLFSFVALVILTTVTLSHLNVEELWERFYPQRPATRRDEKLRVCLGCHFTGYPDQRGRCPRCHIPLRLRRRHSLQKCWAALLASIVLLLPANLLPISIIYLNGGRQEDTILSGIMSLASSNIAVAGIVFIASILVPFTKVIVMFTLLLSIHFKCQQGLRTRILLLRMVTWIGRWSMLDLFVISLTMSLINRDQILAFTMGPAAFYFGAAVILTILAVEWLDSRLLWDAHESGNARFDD

cryo-EM structure = biological target: the molecule itself; assay: cryo-EM structure

B1: LetB (Lipophilic Envelope-spanning Tunnel B), untagged (natural protein, E. coli, UniProt P76272 1-877, looked up)
chain: MSQETPASTTEAQIKNKRRISPFWLLPFIALMIASWLIWDSYQDRGNTVTIDFMSADGIVPGRTPVRYQGVEVGTVQDISLSDDLRKIEVKVSIKSDMKDALREETQFWLVTPKASLAGVSGLDALVGGNYIGMMPGKGKEQDHFVALDTQPKYRLDNGDLMIHLQAPDLGSLNSGSLVYFRKIPVGKVYDYAINPNKQGVVIDVLIERRFTDLVKKGSRFWNVSGVDANVSISGAKVKLESLAALVNGAIAFDSPEESKPAEAEDTFGLYEDLAHSQRGVIIKLELPSGAGLTADSTPLMYQGLEVGQLTKLDLNPGGKVTGEMTVDPSVVTLLRENTRIELRNPKLSLSDANLSALLTGKTFELVPGDGEPRKEFVVVPGEKALLHEPDVLTLTLTAPESYGIDAGQPLILHGVQVGQVIDRKLTSKGVTFTVAIEPQHRELVKGDSKFVVNSRVDVKVGLDGVEFLGASASEWINGGIRILPGDKGEMKASYPLYANLEKALENSLSDLPTTTVSLSAETLPDVQAGSVVLYRKFEVGEVITVRPRANAFDIDLHIKPEYRNLLTSNSVFWAEGGAKVQLNGSGLTVQASPLSRALKGAISFDNLSGASASQRKGDKRILYASETAARAVGGQITLHAFDAGKLAVGMPIRYLGIDIGQIQTLDLITARNEVQAKAVLYPEYVQTFARGGTRFSVVTPQISAAGVEHLDTILQPYINVEPGRGNPRRDFELQEATITDSRYLDGLSIIVEAPEAGSLGIGTPVLFRGLEVGTVTGMTLGTLSDRVMIAMRISKRYQHLVRNNSVFWLASGYSLDFGLTGGVVKTGTFNQFIRGGIAFATPPGTPLAPKAQEGKHFLLQESEPKEWREWGTALPK
stoichiometry N [1]: 6 LetB per LetA
stoichiometry N (cryo-EM structure): 6
